For this experiment, the target named is 破伤风标准毒素 (破伤风毒素蛋白) (Clostridium tetani, UniProt P04958 2-1315).

The values that follow come from patent CN108218984A (ZHUHAI TRINOMAB BIOTECHNOLOGY CO LTD; GUANGZHOU TAINUODI …, dated 2018).

Chain of 破伤风标准毒素 (破伤风毒素蛋白) (P04958 2-457 limits assumed, chain 1 of 2): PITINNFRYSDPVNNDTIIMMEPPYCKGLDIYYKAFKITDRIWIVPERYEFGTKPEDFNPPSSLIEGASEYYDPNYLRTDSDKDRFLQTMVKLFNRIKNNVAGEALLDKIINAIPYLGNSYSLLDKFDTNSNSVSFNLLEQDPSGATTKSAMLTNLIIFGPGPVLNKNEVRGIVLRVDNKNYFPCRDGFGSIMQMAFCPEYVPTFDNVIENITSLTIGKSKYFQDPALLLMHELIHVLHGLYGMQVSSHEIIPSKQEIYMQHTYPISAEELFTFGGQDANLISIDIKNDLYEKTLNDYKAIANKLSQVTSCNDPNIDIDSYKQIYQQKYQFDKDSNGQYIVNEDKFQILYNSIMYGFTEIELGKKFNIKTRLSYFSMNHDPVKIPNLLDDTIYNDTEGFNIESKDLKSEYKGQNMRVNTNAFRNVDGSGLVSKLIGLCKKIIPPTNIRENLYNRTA
Chain of 破伤风标准毒素 (破伤风毒素蛋白) (P04958 458-1315 limits assumed, chain 2 of 2): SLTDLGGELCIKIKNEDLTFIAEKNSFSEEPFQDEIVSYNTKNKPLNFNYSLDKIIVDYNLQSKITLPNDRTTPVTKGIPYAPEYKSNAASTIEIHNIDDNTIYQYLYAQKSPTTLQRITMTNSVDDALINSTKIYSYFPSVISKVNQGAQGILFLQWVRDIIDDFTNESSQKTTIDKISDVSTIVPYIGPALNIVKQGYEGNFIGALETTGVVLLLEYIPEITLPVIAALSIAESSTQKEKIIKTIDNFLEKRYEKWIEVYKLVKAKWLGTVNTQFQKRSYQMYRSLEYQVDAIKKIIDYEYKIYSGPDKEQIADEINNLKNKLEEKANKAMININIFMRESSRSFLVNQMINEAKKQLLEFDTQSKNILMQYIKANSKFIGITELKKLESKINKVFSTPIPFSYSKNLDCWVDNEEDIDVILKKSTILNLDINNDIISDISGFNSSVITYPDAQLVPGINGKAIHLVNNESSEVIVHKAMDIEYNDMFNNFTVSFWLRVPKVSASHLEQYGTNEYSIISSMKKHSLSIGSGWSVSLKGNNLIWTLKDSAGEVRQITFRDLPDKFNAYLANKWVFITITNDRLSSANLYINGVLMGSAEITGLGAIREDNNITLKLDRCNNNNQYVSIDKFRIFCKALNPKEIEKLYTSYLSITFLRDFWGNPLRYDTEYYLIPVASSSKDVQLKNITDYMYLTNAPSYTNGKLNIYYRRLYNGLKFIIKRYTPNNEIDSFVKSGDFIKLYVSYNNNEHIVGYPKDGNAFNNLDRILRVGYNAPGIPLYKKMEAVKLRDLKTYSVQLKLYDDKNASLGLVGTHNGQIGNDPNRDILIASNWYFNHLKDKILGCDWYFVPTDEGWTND

B1: TRN0011抗体 (全人源抗破伤风毒素中和抗体) (antibody, V domains shown)
VH: QVQLQESGAGLVKPSETLSLTCGVAGGPFTGSYLSWIRQPPGKGLEWIGEVSQSGSTSYNPSLKSRVTISVDTSKSQFSLKLSSVTAADTAVYYCARLTKHYINSAYWGQGTLVTVSS
VL: DIQMTQSPSILSASVGDRVTITCRASQIIGSWLAWYQQKPGKAPTLVIYKASRLDSGVPSRFSGTESGTEFTLTISSLQPDDFATYYCQQYNSYPYTFGQGTKLEIK
As a reminder, the Kd is the constant that tells how readily two partners part at equilibrium. Read a high Kd as a looser complex. The term koff denotes the first-order rate constant of dissociation. By kon is commonly meant the second-order rate constant of association. High values mean fast association, low ones slow association. B1: the equilibrium dissociation constant (Kd) was determined as 0.905 nM, the koff came to 3.87e-05 s⁻¹ and the kon amounted to 42700 M⁻¹ s⁻¹.
